This note sets out measurements from patent US20140093496A1 (Chugai, published 2014).

Assay [1] addresses T1, FcγRIIIa type V extracellular domain, C-terminal His tag (human, UniProt P08637 17-208).
T1 construct: extracellular domain; also called FcgRIIIaV; FcγRIIIaV; not shown: His tag at the C terminus
Briefly: SPR (Biacore), antibody captured on chip, FcγR extracellular domain as analyte; 1:1 kinetic fit or Equation 2 for weak binding. The source says: (§1) IL6R-L was utilized as the common antibody L chain for all of the antibodies, the antibodies were expressed and purified according to the method of Reference Example 1, and binding to each of the FcγRs (FcγRIa, FcγRIIa H type, FcγRIIa R type, FcγRIIb, and FcγRIIIa V type) was comprehensively evaluated by the method of Reference Example 2.
(§2) Furthermore, KD(IIaR)/KD(IIb) and KD(IIaH)/KD(IIb) in the table respectively represent the value obtained by dividing the KD value of each variant for FcγRIIaR by the KD value of each variant for FcγRIIb, and the value obtained by dividing the KD value of each variant for FcγRIIaH by the KD value of each variant for FcγRIIb. KD(IIb) of the parent polypeptide/KD(IIb) of the altered polypeptide refers to the value obtained by dividing the KD value of the parent polypeptide for FcγRIIb by the KD value of each variant for FcγRIIb.
(In SPR one partner is held on a chip, and binding of the other changes the refractive index at the surface.)

The target in assay [2] is T2, FcγRIIb extracellular domain with C-terminal His tag (human, UniProt P31994 43-217).
T2 construct: extracellular domain; also called FcgRIIb
T2 sequence (looked up): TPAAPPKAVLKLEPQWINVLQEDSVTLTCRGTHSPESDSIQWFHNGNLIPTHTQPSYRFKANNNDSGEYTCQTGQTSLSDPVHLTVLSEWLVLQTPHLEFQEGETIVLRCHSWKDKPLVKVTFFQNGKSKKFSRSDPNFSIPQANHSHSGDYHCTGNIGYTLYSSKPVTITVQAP
Briefly: SPR (Biacore).
Description: as §1, §2

Assay [3] addresses T3, FcγRIIa type H extracellular domain with C-terminal His tag (human, UniProt P12318 34-217).
T3 construct: extracellular domain; also called FcgRIIaH; FcγRIIaH
T3 sequence (looked up): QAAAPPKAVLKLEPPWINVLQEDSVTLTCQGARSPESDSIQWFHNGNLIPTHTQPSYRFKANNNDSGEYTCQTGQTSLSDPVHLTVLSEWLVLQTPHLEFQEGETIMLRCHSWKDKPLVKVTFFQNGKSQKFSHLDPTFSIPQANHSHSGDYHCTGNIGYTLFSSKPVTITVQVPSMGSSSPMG
As to the kind of experiment: SPR (Biacore).
Description: as §1, §2

The target of assay [4] is T4, FcγRIIa type R extracellular domain with C-terminal His tag (human, UniProt P12318 34-217).
T4 construct: extracellular domain; also called FcgRIIaR; FcγRIIaR
T4 sequence (looked up): T3 sequence (looked up) with H134R
Briefly: SPR (Biacore).
Description: as §1, §2

The target of assay [5] is T5, FcγRIIa type R extracellular domain, C-terminal His tag (human, UniProt P12318 34-217).
T5 construct: extracellular domain; also called FcgRIIaR; FcγRIIaR; not shown: His tag at the C terminus
T5 sequence (looked up): T3 sequence (looked up) with H134R
As to the kind of experiment: SPR (Biacore), antibody captured, FcγR as analyte.
Description: as §2
Kinetic analyses for calculating the KD values of each altered antibody for FcγR were performed according to the following method. First, antibodies of interest were captured onto the above-mentioned sensor chips, and an Fcγ receptor diluted with the running buffer was allowed to interact. The Biacore Evaluation Software was used to globally fit the measured results to the obtained sensorgram using the 1:1 Langmuir binding model, and the association rate constant ka (L/mol/s) and the dissociation rate constant kd (1/s) were calculated; and from those values the dissociation constants KD (mol/L) were calculated.

Assay [6] addresses T6, FcγRIa extracellular domain with C-terminal His tag (human, UniProt P12314 16-292).
T6 construct: also called FcgRIa
Briefly: SPR (Biacore).
Description: as §1, §2

Broadly, the Kd is the concentration at which binding is half-saturated. A low value points to higher affinity.

Positions count from the first letter of the chain named. Names and notes keep the numbering of the source.

T1 sequence (P08637 17-208 F176V): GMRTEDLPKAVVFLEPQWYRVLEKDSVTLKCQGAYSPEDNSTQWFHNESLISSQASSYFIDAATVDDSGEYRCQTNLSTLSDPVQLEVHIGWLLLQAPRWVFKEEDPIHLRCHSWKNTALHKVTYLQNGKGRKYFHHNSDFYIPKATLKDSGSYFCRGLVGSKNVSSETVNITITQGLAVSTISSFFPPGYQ
T6 sequence (P12314 16-292): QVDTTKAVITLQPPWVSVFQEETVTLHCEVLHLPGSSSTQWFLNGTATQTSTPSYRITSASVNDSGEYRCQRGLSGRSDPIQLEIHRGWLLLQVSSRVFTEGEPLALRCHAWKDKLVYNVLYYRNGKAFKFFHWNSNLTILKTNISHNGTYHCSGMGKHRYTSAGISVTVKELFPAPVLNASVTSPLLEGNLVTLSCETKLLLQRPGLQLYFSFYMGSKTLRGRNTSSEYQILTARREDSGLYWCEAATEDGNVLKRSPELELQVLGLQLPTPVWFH

B1: IL6R-BP208/IL6R-L (antibody, human IgG1, kappa)
heavy: QVQLQESGPGLVKPSETLSLTCAVSGHSISHDHAWSWVRQPPGEGLEWIGFISYSGITNYNPSLQGRVTISRDNSKNTLYLQMNSLRAEDTAVYYCARSLARTTAMDYWGEGTLVTVSSASTKGPSVFPLAPSSKSTSGGTAALGCLVKDYFPEPVTVSWNSGALTSGVHTFPAVLQSSGLYSLSSVVTVPSSSLGTQTYICNVNHKPSNTKVDKKVEPKSCDKTHTCPPCPAPDLLGDDSVFLFPPKPKDTLMISRTPEVTCVVVDVSDEDGEVKFNWYVDGVEVHNAKTKPREEQYNSTYRVVSVLTVLHQDWLNGKEYKCKVSNKALPRPIEKTISKAKGQPREPQVYTLPPSRDELTKNQVSLTCLVKGFYPSDIAVEWESNGQPENNYKTTPPVLDSDGSFFLYSKLTVDKSRWQQGNVFSCSVMHEALHNHYTQESLSLSP
light: not shown
notes: Anti-human IL-6 receptor IgG1
In assay [1], B1 had a dissociation constant Kd of 53 µM.

B2: IL6R-BP130/IL6R-L (antibody, human IgG1, kappa)
heavy: B1 heavy with D239G, D270H, G273P, V325M, R332K
light: not shown
notes: E233D/P238D/V323M/A330K (EU) in IL6R-B3; copies: 2 + 2
On to B2, for which the affinity in assay [2], expressed as Kd, was 300 nM.

B3: IL6R-BP176/IL6R-L (antibody, human IgG1, kappa)
heavy: B1 heavy with D239G, D270H, G273P, K328D, R332K
light: not shown
notes: E233D/P238D/K326D/A330K (EU) in IL6R-B3; copies: 2 + 2
For the molecule B3, in assay [3], the dissociation constant (Kd) stood at 30 µM.

B4: IL6R-BP195/IL6R-L (antibody, human IgG1, kappa)
heavy: B1 heavy with L236Y, Y298D, K328A, R332K
light: not shown
notes: E233D/L234Y/G237D/P238D/H268D/P271G/Y296D/K326A/A330K (EU) in IL6R-B3; copies: 2 + 2
For B4, the dissociation constant Kd in assay [3] was 10 µM; in assay [4], 910 nM; in assay [2], 50 nM.

B5: IL6R-BP195/IL6R-L (antibody, human IgG1, kappa)
heavy: B1 heavy with L236Y, Y298D, K328A, R332K
light: not shown
notes: Anti-human IL-6 receptor IgG1
For the molecule B5, binding in assay [1] was put at a Kd of 31 µM.

B6: IL6R-BP196/IL6R-L (antibody, human IgG1, kappa)
heavy: B1 heavy with D235E, L236Y, D239G, K328A, R332K
light: not shown
notes: Anti-human IL-6 receptor IgG1
As to B6, binding in assay [1] was put at a Kd of 51 µM.

B7: IL6R-BP107/IL6R-L (antibody, human IgG1, kappa)
heavy: B1 heavy with D235E, D239G, D270E, G273P, R332A
light: not shown
notes: IgG1; P238D/H268E (EU numbering) introduced into IL6R-B3
Take B7: in assay [5], binding was characterised by a dissociation constant (Kd) of 12 µM.

B8: IL6R-BP116/IL6R-L (antibody, human IgG1, kappa)
heavy: B1 heavy with D235E, D239G, D270H, G273P, K328T, R332A
light: not shown
notes: IgG1; P238D/K326T (EU numbering) introduced into IL6R-B3
On to B8, for which, in assay [5], binding was characterised by a dissociation constant (Kd) of 15 µM.

B9: IL6R-BP197/IL6R-L (antibody, human IgG1, kappa)
heavy: B1 heavy with L236Y, Y298D, K328D, R332K
light: not shown
notes: Anti-human IL-6 receptor IgG1
For the molecule B9, in assay [1], the Kd amounted to 33 µM.

B10: IL6R-BP189/IL6R-L (antibody, human IgG1, kappa)
heavy: B1 heavy with D235E, K328A, R332K
light: not shown
notes: G237D/P238D/H268D/P271G/K326A/A330K (EU) in IL6R-B3; copies: 2 + 2
In assay [6], B10 displayed an equilibrium dissociation constant (Kd) of 42 nM.

B11: IL6R-BP206/IL6R-L (antibody, human IgG1, kappa)
heavy: B1 heavy with D239G, D270H
light: not shown
notes: Anti-human IL-6 receptor IgG1
For B11, in assay [1], the Kd stood at 69 µM.

B12: IL6R-BP182/IL6R-L (antibody, human IgG1, kappa)
heavy: B1 heavy with D239G, D270H, Y298D, R332K
light: not shown
notes: E233D/P238D/P271G/Y296D/A330K (EU) in IL6R-B3; copies: 2 + 2
As for B12, the Kd in assay [6] was found to be 10 nM.

B13: IL6R-BP126/IL6R-L (antibody, human IgG1, kappa)
heavy: B1 heavy with D235E, D239G, D270H, G273P, K328L, R332A
light: not shown
notes: IgG1; P238D/K326L (EU numbering) introduced into IL6R-B3
As for B13, the Kd in assay [5] is 11 µM.

B14: IL6R-BP208/IL6R-L (antibody, human IgG1, kappa)
heavy: B1 heavy
light: not shown
notes: E233D/G237D/P238D/H268D/P271G/A330R (EU) in IL6R-B3; also called IL6R-BP20B/IL6R-L; copies: 2 + 2
B14: the Kd stood at 8.3 µM in assay [3] and 850 nM in assay [4].

B15: IL6R-BP202/IL6R-L (antibody, human IgG1, kappa)
heavy: B1 heavy with D235E, D270H, K328A
light: not shown
notes: G237D/P238D/P271G/K326A/A330R (EU) in IL6R-B3; copies: 2 + 2
Turning to B15, the equilibrium dissociation constant (Kd) in assay [3] is 9.2 µM; in assay [6], 95 nM.

B16: IL6R-BP084/IL6R-L (antibody, human IgG1, kappa)
heavy: B1 heavy with D235E, D239G, D270H, G273P, V325M, R332K
light: not shown
notes: P238D/V323M/A330K (EU) in IL6R-B3; copies: 2 + 2
B16: the figures for the dissociation constant (Kd) in assay [2] and in assay [6] were 500 nM and 7 nM, respectively.

B17: IL6R-BP200/IL6R-L (antibody, human IgG1, kappa)
heavy: B1 heavy with L236Y, D270H, K328D
light: not shown
notes: E233D/L234Y/G237D/P238D/P271G/K326D/A330R (EU) in IL6R-B3; copies: 2 + 2
In the case of B17, the Kd in assay [2] is 34 nM.

B18: IL6R-BP203/IL6R-L (antibody, human IgG1, kappa)
heavy: B1 heavy with D235E, D270H
light: not shown
notes: Anti-human IL-6 receptor IgG1
In turn, B18 came in with a Kd in assay [1] of 72 µM.

B19: IL6R-BP192/IL6R-L (antibody, human IgG1, kappa)
heavy: B1 heavy with D239G, Y298D, R332K
light: not shown
notes: E233D/P238D/H268D/P271G/Y296D/A330K (EU) in IL6R-B3; copies: 2 + 2
Turning to B19, the Kd in assay [4] came to 2600 nM; in assay [6] it was 6.6 nM.
